What follows are sequences tested against T1, AhrC (Bacillus subtilis) (UniProt P17893) (assay: EMSA). Details: 10 mM Tris-HCl pH 7.5, 43 mM NaCl, 1 mM MnCl2, 1 mM DTT, 5% glycerol, 1 ug poly[dI-dC] per 14 ul, 23 C 15 min; 5% PAGE in 40 mM Tris-acetate at 4 C.
T1 sequence: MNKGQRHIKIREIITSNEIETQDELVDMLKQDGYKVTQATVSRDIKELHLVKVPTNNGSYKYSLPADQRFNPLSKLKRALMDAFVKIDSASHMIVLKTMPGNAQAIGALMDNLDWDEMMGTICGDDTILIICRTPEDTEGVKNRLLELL

Sequence	binding
CCGAAGCTTTCTCCTAAATCACAGTTTAAATCAATCTGAAACACAGAATCCCTCCTGCCAAAGCAAACGATATGCTTTATGTCATTTATTGTCCCGAAATTCGGAACGACTATTCCGAATTTTTGAACTTTATTTCATTATAAGTGAATCATATCAGTTTGTGAAATACTTTTGTCAGAAAACCTACCATGGTCCCAGAATAAAACCTGCCAAACTAAAAAAGAGAGTCCATCTTAGGACTCTGAATTCGAT (double strand) [PpxpA probe 2]	binds
CCGAAGCTTTCTCCTAAATCACAGTTTAAATCAATCTGAAACACAGAATCCCTCCTGCCAAAGCAAACGATATGCTTTATGTCATTTATTGTCCCGAAATTCGGAACGACTATTCCGAATTTTTGAACTTTATTTCATTATAAGTGAATCATATCAGTTTGTGAAATACTTTTGTCAGAAAACCTACCATGGTCCCAGAATAAAACCTGCCAAACTAAAGAATTCGAT (double strand) [PpxpA probe 3]	binds more weakly
GCGCTTTCAGCGAATGTGTGGAAAAAATGTTTCGTTTTTTATTCGCTGTGTGATTTTGCGTAATATTTACAATTCGATAGAATGCGAGAAGCACTGGTGTCCTTGGGTTTGATGGGATTTTTGGCGGAGCAAATAAATTGGATGAGAGAAAAAGTGTTCCTTCGTCACTATTTTTCTGTGGCGGGTGAATCATGTTTCTGTAGACCCACTGCGGATCAGCTTTGTAAGATAATAATAGGAAAATGTGAGCGAGAGGAGGTTTTGTATGGAGAGATATGATGAACTG (double strand) [PmneS]	binds
TTTAGTTTGGCAGGTTTTATTCTGGGACCATGGTAGGTTTTCTGACAAAAGTATTTCACAAACTGATATGATTCACTTATAATGAAATAAAGTTCAAAAATTCGGAAGCTTCCG (double strand) [PpxpA probe 5]	binds more weakly

What follows are sequences tested against T2, MntR (Bacillus subtilis) (UniProt P54512) (assay: EMSA). Details: 10 mM Tris-HCl pH 7.5, 43 mM NaCl, 1 mM MnCl2, 1 mM DTT, 5% glycerol, 1 ug poly[dI-dC] per 14 ul, 23 C 15 min; 5% PAGE in 40 mM Tris-acetate at 4 C.
T2 sequence: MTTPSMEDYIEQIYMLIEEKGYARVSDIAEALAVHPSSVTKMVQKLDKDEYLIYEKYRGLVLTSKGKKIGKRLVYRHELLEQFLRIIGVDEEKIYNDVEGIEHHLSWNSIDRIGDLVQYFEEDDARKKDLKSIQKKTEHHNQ

Sequence	binding
ATGAAGCTTCAAAGAGTTTCCTTAAGGCAAATTATTTTATCTACATCATATGACCATCCCGGTTTCTTGTCAACCGAAAATGTTCAAAATACACTTCTGAATTTTTCCCTGTTATGTAACATGATATGTAGGGATTCGTGATAAGGTCCCATATAAAAAGACATCGTTTCATTTCGAAACGATGCCTCCTGTATCTAATGAGTCTAGGCTTCCTTCCGCAGCCCGCGGAATATAAGGCCCAGCAAGAACACGAAGATGGCTGCCCCGATGATGGCCGGGA (double strand) [PmntH del1]	binds
ATGAAGCTTTTATCTACATCATATGACCATCCCGGTTTCTTGTCAACCGAAAATGTTCAAAATACACTTCTGAATTTTTCCCTGTTATGTAACATGATATGTAGGGATTCGTGATAAGGTCCCATATAAAAAGACATCGTTTCATTTCGAAACGATGCCTCCTGTATCTAATGAGTCTAGGCTTCCTTCCGCAGCCCGCGGAATATAAGGCCCAGCAAGAACACGAAGATGGCTGCCCCGATGATGGCCGGGA (double strand) [PmntH del2]	no binding

From PMC10448178
